From patent publication US12508311B2, “Fusion protein, and preparation method and use thereof” (SUN YAT-SEN UNIVERSITY, priority 2021, dated 2025)
Substitutions are numbered along the chain they refer to.

Experiments:
[1] = test system: HT29 (KRas wt); test: CCK-8 cell proliferation experiment, HT29; settings: 10 and 20 μg/mL, 24 hours
From the text: CCK-8 was a highly sensitive and non-radioactive colorimetric method for determining the number of living cells in the cell proliferation or toxicity test.

[2] = biological target: T1, KRas protein (Homo sapiens, UniProt P01116); test: SPR binding capacity experiment (BiacoreT200); settings: in vitro; for binding capacity with the KRas protein (SPR): molecule coupled on CM5 chip, KRas flowing
T1 construct: made in house
T1 sequence (P01116 whole entry): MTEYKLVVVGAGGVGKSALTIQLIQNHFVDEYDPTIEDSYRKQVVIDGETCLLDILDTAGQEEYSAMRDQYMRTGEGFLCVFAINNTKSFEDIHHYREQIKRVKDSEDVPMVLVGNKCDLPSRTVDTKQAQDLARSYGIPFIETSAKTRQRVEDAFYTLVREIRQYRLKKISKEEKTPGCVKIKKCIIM
Experimental: (§1) 100 μL of coating solution was added into each well of 96-well ELISA plate to coat overnight at 4° C. • (3) Blocking: the ELISA plate was cleaned with a phosphate buffer solution (PBS) (PBS formula: 4 g of NaCl, 0.1 g of KCl, 1.815 g of disodium hydrogen phosphate dodecahydrate, and 0.12 g of […], dissolved in 400 mL of ultrapure water, with a constant volume of 500 mL for use) for 5 minutes each time. 300 μL of 5% (w/v) bovine serum albumin was added into each well, and blocked at 37° C. for 2 hours. • (4) Adding of the purified protein KRas: 6.25 μg, 12.5 μg, 25 μg, 50 μg and 100 μg of purified protein were respectively pre-mixed and diluted in 200 μL of PBS, and the diluted KRas protein was added into the wells in sequence, and slowly shaken at the room temperature for 5 hours. […] Main steps of the example were as follows: • (1) Coupling of ligand: the target coupling amount was calculated according to the following formula:
[formula] wherein Rmax was the maximum binding capacity on the chip surface, and 100 RU was usually substituted in a protein test. […] Through the preconcentration experiment, it was determined that pH 5.0 was the optimal coupling condition. […] In this experiment, aimforimmobilized level was selected, and the calculated 110RU was inputted in target level. […]

[3] = biological target: T1, KRas protein; test: ELISA of binding level to the KRas protein in vitro; settings: coated at 1 ng/μL, KRas 6.25-100 μg, compared with the control group
Experimental: as §1, with “following formula: […]” for “following formula:”

B1: TKD: fusion protein: tumour-cell-penetrating peptide BR2, anti-KRas nanobody VHH and lysosome recognition peptide CTM; SEQ ID NO.4 (protein)
chain: RAGLQFPVGRLLRRLLRDVQLQESGGGLVQAGGSLRLSCVASGRTFSTYPTGWFRQAPGKEREFVARINLSGGITNYADSVKGRFTISRDNAKNTVYLQMNSLKPEDTAVYYCGGGSTTWAGGIPTNFDYWGQGTQVTVSSGRKFERQKILDQRFFE
- inhibition of cell growth (CCK-8) [1]: could significantly inhibit growth
- level of binding between TKD and the KRas protein (SPR) [2]: reached the level of antigen-antibody binding (nM)
- binding capacity with the KRas protein (SPR) [2]: had a strong binding capacity with the KRas protein in vitro
- interaction with the KRas protein (ELISA, OD450-OD630) [3]: had a stronger interaction with the KRas protein

B2: TKDm: control molecule of TKD with mutated CTM fragment (CTMmt) which could not be recognized by a lysosome; SEQ ID NO.5 (protein)
chain: B1 chain with Q148A, Q153A
- inhibition of cell growth (CCK-8) [1]: could not achieve the same effect
- binding capacity with the KRas protein (SPR) [2]: had a strong binding capacity with the KRas protein in vitro
- interaction with the KRas protein (ELISA, OD450-OD630) [3]: had a stronger interaction with the KRas protein
